The DeepSol protein solubility set

Assay: soluble on expression in E. coli; label from the status in PepcDB or PDB records

Sequence	soluble on expression in E. coli
MDVSFEFEHYQVRLIKSSDAVTIANYFMRNRHHLAPWEPKRSHAFFTPEGWKQRLLQLVELHKHNLAFYFVVVDKNEHKIIGTVSYSNITRFPFHAGHVGYSLDSEYQGKGIMRRAVNVTIDWMFKAQNLHRIMAAYIPRNEKSAKVLAALGFVKEGEAKKYLYINGAWEDHILTSKINDDWKPE	not soluble
MDWDDEYSHNSFDLHCLLNSFPGDLEFEQIFSDIDEKIEQNAASIKHCIKEIQSEINKQCPGVQLQTTTDCFEWLTNYNYSTSESSFISHGDLIKFFKTLQDLLKNEQNQEEMTLDLLWDLSCHSSVSFPSTLSGTSFHFLSRTSLHSVEDNSSMDVKSMWDDIRLHLRRFLVSKLQSHNEINNSQQKILLKKQCLQQLLFLYPESEVIIKYQNIQNKLLANLLWNCFPSYNRDSNLDVIAHGYQSTMLKLYSVIKEDFNTLCEILAPSSMVKFIKETYLDTVTEEMAKFLENFCELQFRENAVRVVKTSKSSSKHRGAVHALG	soluble
MDWFGVDAGTLREGDRADFVVIDPNCLNSDVDAYHEETVPFYGGLSRMVNRNDDAVVATAVNGTVVFGKGEFRDGYGLEHHHHHH	not soluble
MDWKITIFTYNLAMKASDSEAVHNMLNGMIDDHTHLVAIGLQEVAHSETIGGAVLTWATTIASWMNTNGRMVLLAKTFQATNQVLIFGRKQLIGQIKRIDYRFQRNTMGGLTGHKGSIGVRLQLASPYSIVFVDSHFIHGPENYGKRVEQYHTNRNCSFPEDKSVRAAFWFGDFNFRVEEDVNTVIRKIKNGTHLELLDTREQLKRALVERDAFIGFHEQPVTFEPTYRVTVGTTEQDGKRVPSWTDRILYKGDGITGLSYTNNKKAVASDHLPVVAMFRVTAPAAPKPQWEVIFEHLPTWYTSIPLVGRFQVNELYYKENGSYRDWIGVFPSSINDCTTATNWIYAATCFEQVIEGSKFLACEFNNIPAGNYRLGYFSCHLHCLVGLSKVFQIVEQP	not soluble
MDWNHYRFRSRWPLPAPAPDVYRALERIEDYPRWWPQVREVTRLDDTSGLLRFRSLLPYDLTATVREQRRDPTEGVLEVAMSGDMEGWARWTVAPRGSASLVRYDQEVVVRKPLLRRLAVPGRPLFRANHRLMMRAGRRGLAAHLAGGRQAVLEHHHHHH	soluble
MDYDRYKLFVGGIAKETSEEALKQYFSRYGAVLEAVVAKEKVTGKPRGFGFVRFANDCDVVKALRDTHFILGKPVDVRKAIRKHELYQQPFSMQFLERKVQQMNGGLREMSSNGVTSRTKKIFVGGLSSNTTEEEFKSYFERFGRTTDVVVMHDGVTNRPRGFGFVTYDSEDSVEVVMQSNFHELSDKRVEVKRAIPKEGIQSNNGNAVNIPPSYSSFQATPYVPEQNGYGMVLQFPPPVFGYHHNVQAVQYPYGYQFTAQVANVSWNNPIMQPTGFYCAPPHPTPPPTNNLGYIQYMNGFDLSGTNISGYNPLAWPVTGDAAGALIHQFVDLKLDVHSQAHQRMNGGNMGIPLQNGTYI	soluble
MDYRVIKENDVFLLTDQDGNIPEHHPYGLGLYTKDTRFLSKWSLRINGEEPVLLASDAAQNYVATILLTNPHIERDGELILWRESVEIERKRFIYAGVLYETIKLKNYHPKPVQLEISVHMDADFADMFIVRGFQTGEVGKRTGQTIGKRSLTFHYEGADGVERATKVSWDREEKTVKEHGEIVFDFALDRAEEQTVTLMVEPITGKTGRVEVIPPEQALQRLQESYQRWEGETANVITDERQFERLVRRGIGDLRVLLTDLGCGPFPVAGLPWFGVPFGRDSLIAALQLLPFNHEIAKGTLLTMARYQGTKVDPWRDEQPGKIMHEIRFGELANTNQIPFTPYYGTIDATPLFLVLLVEYVKWTGNFDLVRQLRSNIDAALHWIDRYGDRDGDLFVEYFQESSKGIANQGWKDSGDSIVHENGEYARAPIALVEVQGYVYHAKMGLADIFEQLQEVEKAEALRTQAEALKKRFEEQFWMEDRKFYALALDENKAPVRTITSNPGHVLFSGMLEGRRADAVIDTLLSEKMFSGYGIRTMGEGEAGYNPMSYHNGSIWPHDNSLILLGLSKLGRRREAKTVIEGLMEASMHFEYDRLPELFCGYSRSEGKPVRYPVACSPQAWAAGTPLVFVQALLGLFPNALEKNIYLSPTLLDSMNMLRVENILIGGGRLSLTVTREQDNFHVQIDENTTGWDIVLR	not soluble
MDYVCSVVFICQSFDLIINRRVISFKKNSLFIVSDKIRRELPVCPSKLRIVDIDKKTCLSFFIDVNNELPGKFTLDKNGYIAEEEPPLSLVFSLFEGIKIADSHSLWLKERLCISLLAMFKKRESVNSFILTNINTFTCKITGIISFNIERQWHLKDIAELIYTSESLIKKRLRDEGTSFTEILRDTRMRYAKKLITSNSYSINVVAQKCGYNSTSYFICAFKDYYGVTPSHYFEKIIGVTDGINKTID	not soluble
MEAEIFPGTIHLIDKPQAIPEAIRLLSASRTIGFDTETRPSFVRGARPSVALMQMSTETDCFLFRLNMIDIPEELQQLLENPGILKVGLSLSDDMTVIRRRKPIEPAGFVELQRLCPAYGIRDASLQKIYAILFGRRISKSQRLTNWEARTLTAAQQSYAALDAWACLRIFNQLMTLPTPTPVQFALL	not soluble
MEALRLEGVSKRYGRRPVLEGVSLSVRPGEVYALAGPNGSGKTTLIRLATGLAFPTKGRAFLLGEDVHKSPAARRHLGAVVEAPAAFYPYLTGRENLRMHARLSGVEDEARIGEVLARLKLLAVADQKVEGYSLGQRQRLGLAAAILHRPKVLVLDEPTSGLDPEGVELVHRLLQELAREGVAILLSTHHLQEVARYAHRVGILGGGRLLDEVVLSGKEAYRLEAEPLEGALALLKTLPQVASARLQGRSVVFEGEPEAALRALLAEGYRVRALAPHRFDLLDYYQERVRHV	soluble
MEANKKAKPSYGDVISNLPNDLLCRILSYLSTKEAALTSILSKRWSNLLLSIPILDFDDSVLLKPQKGQRKNVFFKAFVDRLLSQRVETSSHVQRVSLKCRQGGVEPDCVIKWILTTVRDLGVLDLSLCIDFGIFHLPFNVFRSKTLVKLRIGTMIRLSQFPSDVVSPTLNSLVLDLVEFRDGDKVEFRQILLAFPSLQSLRVHESNKWKFWNGSASSRTLKSLVYRSDDDSSAPKPCVSFDTPSLVYLDYSDMVADKYENLKFDSLVEARLDLHLTAFQIMRKPNNIGIVSGDVTTLFKGIRNVKILCLSPDALEALYYRGEKIPMFNNLITLSLGSDKPHGSPFIFWKLLPSLLNNSLKLETLIIKGLVHYVAEGWEGLSPMTPMSRLCFSWDTVSDSLSSSAMKVLEISGYKGTWQELNQMKRFLGNLSRLEVVRVYHKAMDDKERINVMFDLFLLPKVSSECDIQVMKETA	soluble
MEARNAEGLESCIEKIQEVKLSSFAELKAFRERKVALITGITGQDGSYLAELLLSKGYKVHGIIRRSSSFNTARIEHLYGNPVTHNGSASFSLHYGDMTDSSCLIKLISTIEPTEIYHLAAQSHVKVSFDLPEYTAEVDAVGTLRLLDAIHACRLTEKVRFYQASTSELYGKVQEIPQSELTPFYPRSPYAVAKMYGYWIVVNYREAYKMFACNGILFNHESPRRGETFVTRKITRSVAKISLRQQEHIELGNLSALRDWGHAKEYVEAMWRILQQDTPDDFVIATGKQFSVREFCNLAFAEIGEQLVWEGEGVDEVGKNQDGVVRVKVSPKYYRPTEVETLLGNPAKARKTLGWEPKITVPELVKEMVASDIALMEADPMA	not soluble
MEAVWGILPKTVAAALQHHLPSCRRGIEEIRIRVSRPLEVIVDGTARLLPYEVTKEDGVHLLNKLSHYSIYAVEEELKRGFMTIEGGHRVGLAGKVITEGGKVKAIRDVSSFNIRIAKEQIGISEPLIPYVYDGRWRHTMIIGSPQTGKTTLLRDAARLISSGTGRIPAQKVAIVDERSEIAGCVKGIPQFSFGPRLDVLDACPKAEGMMMMIRSMSPDVMIVDEIGREEDSEAVLEAANAGVSVWTTVHGRNIQDVWQRPTLGPVMEQKVFERFIELTNIPHPGSIRRILDAGGTVLYERAVVHR	not soluble
MEAYDICKFWKLDMLEEFSQIVLKGKKKIILDIPSPSQQNKSDIVSLCPADSPETCNSSIPDWLVKVMRKENGYDPKLIIKRRVLCTTDLRKNQGCLSMHLSKLEKSDFLTEDETRFLDEDFLKAKRDGLKVFLVDPESDKHVVYLKKWNGNTVWKYVLSHGWNNVIDKKIFKVNDVIEIWSFRDGSGKLCFALSSPTRCGRSSSGHSS	soluble
MEDFKKIVNNIRLKDTFDFKLAAFPNQNYDQLLPSQIYKNYYQGIEIQQHKYQNELDIKIINFLYPDGDFGSANKNGTLKLSLMLTDKKNNQVYYKLLEVSGFKSNPYGVDLEHHHHHH	not soluble
MEDGRTSDKVLEKIQEKIFSGEWKPGQKIMSETKLAEDLNVSRVSVREAIEKLAAFNIVSKKKGGGTFINDLGPSVYLNSLLPMLILNRDNYLEILEFRLITEPESAKLCAERCDDELIISLEKIYDNMKNYKDDIQKFTKEDLNFHTKIAEGTKNSLIIKINELLMNILEYHQRGLYETLGPKGGICEHKFILDAIKNRDSELAFIYSRRHAERTINDLKKLQT	not soluble
MEEAKQKVVDFLNSKSGSKSKFYFNDFTDLFPDMKQREVKKILTALVNDEVLEYWSSGSTTMYGLKGAGKQAAAEHED	soluble
MEEERQQSPLEGLSEEALKHVHQLDEPIPIELQASYFRLSAEMRRRGIQLSENEVQDAEQLLFDPVLSDDIKKMTLLRLAITGNITVFRIIERYLESAPDSMRPWALMAQLEARIGILSDLVDEKQLVITSGLGGHDGMMRFMAFLHTDKLQDFEHYQEELIEKELLYRIGKASGEVERLEMHNNYLLLTFLVPINYDLRNFFSSFIAECNQFGHFLSTTFIITNTQLLTPQGAQVALKKYAEENDLPATN	not soluble
MEEIMLFPLSSVVLPEGKMKLRIFEPRYQRMVAQCSKTGSGFGLCLFDSKSNKNANELSEFGTLVKIVDFETLSDGLLGITVVGIRRFAIRKVRVEYDGLRIATVQWFPDWPSQELLERERFLGEQLQEVYRQFPQIGELHSLCFFDDASWVCQRWLELLPLSKGQFDVLVGQRDCHAALAFLQRTIESHLDT	not soluble
MEELFCIGCGIQIQTEDKEKAGFTPAAALKKGMETGELYCQRCFRLRHYNEITDVHITDDEFLRLLHEVGDSDALVVNVIDIFDFNGSIIPGLSRFISGNDVLLVGNKKDILPKSVKDGKVTQWLTERAHEEGLRPLDVMLTSAQNKYAIKDLIGRINELRNGRDVYVVGVTNVGKSTLINAIIQEITGNKDVITTSRFPGTTLDKIEIPLDDGTFIFDTPGIIHRHQMAHYLSPKELKIVSPKKEIKPKTYQLNPEQTLFLGGLARFDFINGERQGFTAFFDNQLELHRTKLAGADAFYDKHVGTLLTPPDKKELTAFPKLVRHEFTIDQKMDIVFSGLGWIRVNGQKDSKAIVAAWAPEGVAVIVRKAII	soluble
MEEPQITVGILSGKEIEFSFPESFTTPDGTKVSGAQKAVYQKEKIYWSGKEYDELIFYPQPNAGIFFELKDVTIGINFHWERKEVQRFQGALKIIVEGETLTAINVISIEDYLTSVISSEMSATASLELLKAHAVISRSWLINKLRVENEKWKATIQPDSAANSPHSTLHSQLIKWYDHEAHTHFDVCADDHCQRYQGITRASTPQAIEAVSATRGEVLMYEGKICDARFSKCCGGAMEEFQNCWENVRHPYLTGKRDYIPESHASDSEKQITGPAIQLPDLTQEEEADRWIRTSPDAFCNTQDKKILSQVLNNYDQETTDFYRWKISYSQQELAELIHQRSGIDFGEIIDLIPVERGTSGRLIRLKIVGTLRTLTIGKELEIRRTLSPSHLYSSAFLVDKEKGEEGNVPTRFTLTGAGWGHGVGLCQIGAAVMGERGYYYKDILAHYYPGSRLEKQYE	not soluble
MEEPVLDFQFVHRKIHTGQIAAFDIIARLVPIKNIRGNDFDDRPAAAVFGMHNLQTRPVARHFEGGADFTQLIVLTLGQPESAYVAVRLKIVRGDISRGGVGKLTGKQSHT	not soluble
